Each block holds one molecule with its values, some of them ahead of it.
How the values were obtained:
[1] = target: HoxFU module of HtSH (Hydrogenophilus thermoluteolus TH-1T) (Hydrogenophilus thermoluteolus TH-1T); test: co-purification
[2] = target: HtSH (soluble NAD+-reducing [NiFe]-hydrogenase, HoxFUYH) (Hydrogenophilus thermoluteolus, UniProt A0A077L6X8); test: fluorometric FMN determination in purified protein; assay type: binding; conditions: bound cofactor content of purified enzyme
purified protein [3] = substrate: NC(=O)c1ccc[n+]([C@@H]2O[C@H](COP(=O)(O)OP(=O)(O)OC[C@H]3O[C@@H](n4cnc5c(N)ncnc54)[C@H](O)[C@@H]3O)[C@@H](O)[C@H]2O)c1; test: purified protein; conditions: H2 as electron donor, 50 °C, kcat at pH 6.5
purified protein [4] = substrate: NC(=O)C1=CN([C@@H]2O[C@H](COP(=O)(O)OP(=O)(O)OC[C@H]3O[C@@H](n4cnc5c(N)ncnc54)[C@H](O)[C@@H]3O)[C@@H](O)[C@H]2O)C=CC1; test: purified protein; conditions: benzyl viologen as electron acceptor, 50 °C

HtSH (soluble NAD+-reducing [NiFe]-hydrogenase, HoxFUYH), sequence (A0A077L885 1-242 partner, one chain of several): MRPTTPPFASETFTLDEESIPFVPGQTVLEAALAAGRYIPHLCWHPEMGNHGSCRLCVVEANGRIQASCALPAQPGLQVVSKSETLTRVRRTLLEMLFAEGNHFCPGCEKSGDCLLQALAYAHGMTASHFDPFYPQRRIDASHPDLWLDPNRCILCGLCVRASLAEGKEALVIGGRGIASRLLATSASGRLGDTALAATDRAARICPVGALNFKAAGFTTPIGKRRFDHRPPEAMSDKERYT
HtSH (soluble NAD+-reducing [NiFe]-hydrogenase, HoxFUYH), sequence (A0A077L7R5 1-189 partner, one chain of several): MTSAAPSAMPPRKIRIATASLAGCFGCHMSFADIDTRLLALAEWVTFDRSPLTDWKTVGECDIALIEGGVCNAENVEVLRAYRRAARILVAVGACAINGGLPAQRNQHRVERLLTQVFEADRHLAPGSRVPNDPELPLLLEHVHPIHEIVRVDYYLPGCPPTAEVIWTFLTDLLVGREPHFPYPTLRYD
HtSH (soluble NAD+-reducing [NiFe]-hydrogenase, HoxFUYH), sequence (A0A077LAI5 1-468 partner, one chain of several): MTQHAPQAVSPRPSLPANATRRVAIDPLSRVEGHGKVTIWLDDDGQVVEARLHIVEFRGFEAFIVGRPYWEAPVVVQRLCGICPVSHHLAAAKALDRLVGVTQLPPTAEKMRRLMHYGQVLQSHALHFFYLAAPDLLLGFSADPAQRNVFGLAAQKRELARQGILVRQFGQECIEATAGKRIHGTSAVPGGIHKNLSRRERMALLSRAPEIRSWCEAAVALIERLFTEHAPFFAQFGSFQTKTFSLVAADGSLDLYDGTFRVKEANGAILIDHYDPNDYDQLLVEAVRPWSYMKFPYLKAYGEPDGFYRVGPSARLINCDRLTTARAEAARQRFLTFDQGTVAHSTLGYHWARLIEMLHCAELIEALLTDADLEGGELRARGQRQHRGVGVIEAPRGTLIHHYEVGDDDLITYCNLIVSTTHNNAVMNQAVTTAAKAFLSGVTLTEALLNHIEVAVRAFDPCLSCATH

stoichiometry N [1]: 1
Molecule: HoxYH module of HtSH (Hydrogenophilus thermoluteolus TH-1T) (from UniProt A0A077L7R5 1-189) (complex)

FMN per SH tetramer [2]: 1.07 mol/mol
Molecule: Cc1cc2nc3c(=O)[nH]c(=O)nc-3n(C[C@H](O)[C@H](O)[C@H](O)COP(=O)(O)O)c2cc1C [FMN]

B1: HtSH (soluble NAD+-reducing [NiFe]-hydrogenase, HoxFUYH) (Hydrogenophilus thermoluteolus) (protein)
chain: MTTERQRTAPGLLAALHQARSRFGRPLDAQALAELSTAFSLPPGEIAATASFYHFFQTPPARYQIHFVDHVVDHHAGVAALCNHLCAAFAIQPGQRTADARLFVGWTACAGLSDQAPAALINGRPMPRLDAARIDALIEKIQAQIPMDQWPTEWFAVTNAIHRHGPLLTWLDTTPAEAVFEHPTAHDPDAILQAVTDAGLRGRGGAGFPTATKWRFCRENADPERFLICNADEGEPGTFKDRVLLTRYPEHLFAGMILAARAIGADKAILYLRYEYQYLLPQLEAARERIASAQATVPQAERVTLEIALGAGAYVCGEESALIESLEGKPGRPRVRPPYPVTQGYLGHPTVVNNVETLVAVAAIVGNGAAWWRALGTPDSSGPKLFCVSGDVAQPGLYEFPYGVALGDVVTAARPLGTRYAVQVSGPSGTLLPATPEQLARPLAFEALPCNGTVMVFDVRRDPVAIVHHFARFFAHESCGFCTPCRVGTQLIAKTFEKIAAGYATRFDLERLAPALEAMRLASNCGFGLSAGNPVRDLIAHFRQQLEAQLQPHDFIPAFSLDAELAATRRLTGRDDPHAHLAQFEQPEVTR
Km (purified protein [3]): 469 µM
Km (purified protein [4]): 1200 µM

From paper PMC7187929 (Biochimica et biophysica acta. Bioenergetics, 2017)
